Results published in paper PMC3887258.

How the values were obtained:
[1] = target: Human metapneumovirus matrix protein (M), untagged (human metapneumovirus, strain NL1-00); experiment: negative-stain electron microscopy, 2D class averages; free M in samples of 7.2 μM M incubated with 400 μM DOPC for 7 days at 37°C; 2% uranyl acetate
[2] = target: Human metapneumovirus matrix protein (M), untagged (human metapneumovirus, strain NL1-00); experiment: crystal structure; 2.8 Å, space group P3_(1); crystals from 20% PEG 6000, 100 mM Tris pH 8.0, 10 mM zinc chloride, 20°C; mixture of intact and proteolysed untagged M
[3] = target: Human metapneumovirus matrix protein (M), untagged (human metapneumovirus, strain NL1-00); experiment: SAXS; untagged M in 1 M NaCl buffer, or as 9:1 mixture with SUMO-3C-M in 1 M NDSB-201 buffer; 1 to 4 mg/ml; 20°C, BM29 ESRF; fitted with MD-based ensemble optimisation

Measured: stoichiometry N

Human metapneumovirus matrix protein (M), untagged (natural protein)
2: all assays above
